Assay results published in the supplement of paper PMC11780869.

Test system: Bacillus subtilis
Assay: cleaved RNA product abundance (RNA/gDNA barcode ratio) relative to median wild-type variant (ratio to wild type); higher = more accumulation of the downstream cleavage product
Outline: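 The B. subtilis chromosome carried reporter mRNAs, truncated aprE or tetM, containing barcoded RNase Y cleavage-site windows mutagenized using oligos with a 9% error rate. After growth in LB at 37°C from OD600 0.0003 to 0.3, cleaved RNA was gel-selected, reverse transcribed and barcode-sequenced next to genomic DNA barcodes, with UMI collapsing. Each construct's RNA:gDNA barcode ratio was scaled to the median construct with the unmutated site. That scaled ratio is reported as cleaved product abundance.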

[1] = experiment (reporter, strain, medium): exp 4a: truncated aprE reporter, strain BJT201 with 2% xylose (RNase J1 expressed), cleavage site: cggR-gapA (positions -7 to +36 mutated)
[2] = experiment (reporter, strain, medium): exp 2b: truncated aprE reporter, strain BJT200, cleavage site: cggR-gapA (positions -7 to +36 mutated)
[3] = experiment (reporter, strain, medium): exp 8a: truncated aprE reporter, strain BJT201 with 2% xylose (RNase J1 expressed), cleavage site: glnRA (positions -5 to +31 mutated)
[4] = experiment (reporter, strain, medium): exp 6: tetM reporter, strain 168, cleavage site: cggR-gapA (positions -7 to +36 mutated)

| Sequence | cleaved RNA product abundance [1] | cleaved RNA product abundance [2] | cleaved RNA product abundance [3] | other results |
| --- | --- | --- | --- | --- |
| ACAGACGAAGGAGCCGCAAAGAGCTTATTAAGGGATGAATAATCCCTCAATATAAATATCTCTCACTTATTTAAA | 0.743 |  |  |  |
| ACAGACGAAGGAGCCGCAAAGAAGTTATTAAGGGTAGAATAATCCCTCAATATAAATATCTCTCACTTATTTAAA | 0.293 | 0.172 |  |  |
| CGACATGTCCCGCTTCTTTCATTAAACCGTTAGCAACTGTTTTACTATATACATTTACCTTTTAAGAGGAGGAAT |  |  | 0.458 |  |
| ACAGACGAAGGAGCCGCAAAGAAGTTATTAAGGGATGAATACTTCCTCAATATAAATATCTCTCACTTATTTAAA | 0.247 | 0.156 |  |  |
| ACAGACGAAGGAGCCGCAAAGAAGCTATTATGGGATGAATAATCCCTCAATATAAATATCTCTCACTTATTTAAA | 0.346 |  |  |  |
| ACAGACGAAGGAGCCGCAAAGAAGTTATTAAAGGATGAATAATCCTTCAATATAAATATCTCTCACTTATTTAAA | 0.86 | 0.646 |  |  |
| ACAGACGAAGGAGCCGCAAAGAAGTTATTAAGGGATGAATAACACCACAATATAAATATCTCTCACTTATTTAAA | 0.0909 |  |  |  |
| CGACATGTCCCGCTTCTTTCATTAATCCGATAGCAACTGTTTTGTTATATACATTTACCTTTTAAGAGGAGGAAT |  |  | 0.378 |  |
| ACAGACGAAGGAGCCGCAAAGAAGTTATTAAGGGATGAATAATCCGTCAAAATAAATATCTCTCACTTATTTAAA | 0.262 |  |  |  |
| ACAGACGAAGGAGCCGCAAAGAAGTTATTTAAGGGATGAATAATCCCTCAATATAAATATCTCTCACTTATTTAA | 0.315 |  |  |  |
| ACAGACGAAGGAGCCGCAAAGAAGCTATTAAGGGATGAATAATCCCTCAGTATAAATATCTCTCACTTATTTAAA |  | 0.135 |  |  |
| ACAGACGAAGGAGCCGCAAAGATGTTATTAAGGGATGAATAATCCCTCAATCTAAATATCTCTCACTTATTTAAA | 0.0528 |  |  |  |
| ACAGACGAAGGAGCCGCAAAGAAGTTATGAACGGATGAATAATCCCTCAATATAAATATCTCTCACTTATTTAAA | 0.242 | 0.177 |  |  |
| ACAGACGAAGGAGCCGCAAAGAAGCTATTAAGGGATGAATAATCCCTCAATATAAATAACTCTCACTTATTTAAA | 0.674 |  |  |  |
| ACAGACGAAGGAGCCGCAAAGAAGTTGTTAAGGGATGAATAAACCCTCAATATAAATATCTCTCACTTATTTAAA | 0.2 |  |  |  |
| CGACATGTCCCGCTTCTTTCATTAATCCGTTATCAACTGTTTTGCAATATACATTTACCTTTTAAGAGGAGGAAT |  |  | 0.266 |  |
| CGACATGTCCCGCTTCTTTCATTAATCCGTTAGCAACTGTTTTGCTATTTACACTTACCTTTTAAGAGGAGGAAT |  |  | 0.12 |  |
| CGACATGTCCCGCTTCTTTCATTAATCCGTTAGCAAATGTTTTGCTATATAAATTTACCTTTTAAGAGGAGGAAT |  |  | 0.499 |  |
| ACAGACGAAGGAGCCGCAAAGAAGTTATTAAGGGATGAATAATCCACCAATATAAATATCTCTCACTTATTTAAA | 0.142 | 0.186 |  |  |
| CGACATGTCCCGCTTCTTTCATTAAACCGTTATCAACTGTTTTGCTATATACATTTACCTTTTAAGAGGAGGAAT |  |  | 0.218 |  |

| Sequence | cleaved RNA product abundance [1] | cleaved RNA product abundance [2] | cleaved RNA product abundance [3] | other results |
| --- | --- | --- | --- | --- |
| ACAGACGAAGGAGCCGCAAAGTAGTTATTAATGGATGAATAATCCCTCAATATAAATATCTCTCACTTATTTAAA | 0.166 | 0.0916 |  |  |
| ACAGACGAAGGAGCCGCAAACAAGTTATTAAATGATGAATAATCCCTCAATATAAATATCTCTCACTTATTTAAA | 0.101 |  |  |  |
| ACAGACGAAGGAGCCGCAAAGAAGTTATTAAGGCATGAATAATCCCTCAATATAAAAATCTCTCACTTATTTAAA | 0.0882 |  |  |  |
| ACAGACGAAGGAGCCGGAAAGAAGTTATTAAGGGATGAATAATCCCTCAATATAAATATCTCTCACTTATTTAAA |  |  |  | cleaved RNA product abundance [4]: 0.897 |
| ACAGACGAAGGAGCCGCAAAGAAGTTATTAAGGGATGAATGATCCCTCAATCTAAATATCTCTCACTTATTTAAA | 0.0934 |  |  |  |
| ACAGACGAAGGAGCCGCAAAGAAGTTATTAAGGGGTGAATAATCCCTCAATATAAATATCTCTCACTTATTTAAA | 0.741 | 0.652 |  | cleaved RNA product abundance [4]: 0.741 |
| ACAGACGAAGGAGCCGCAAAGAAGTTCTGAAGGGATGAATAATCCCTCAATATAAATATCTCTCACTTATTTAAA |  | 0.193 |  |  |
| ACAGACGAAGGAGCCGCAAAGAAGTTATTAACGGATGAATAATCACTCAATATAAATATCTCTCACTTATTTAAA | 0.106 | 0.0895 |  |  |
| ACAGACGAAGGAGCCGCAAAGAAGTTATTAAGGGATGAATAAGCCCTAAATATAAATATCTCTCACTTATTTAAA | 0.528 | 0.342 |  |  |
| ACAGACGAAGGAGCCGCAAAGAAGTTATTAAGGTTTGAATAATCCCTCAATATAAATATCTCTCACTTATTTAAA | 0.144 | 0.102 |  |  |
| ACAGACGAAGGAGCCGCAAAGAAGTTATTAAGGAATGAATAATCCCCCAATATAAATATCTCTCACTTATTTAAA | 0.115 | 0.122 |  |  |
| CGACATGTCCCGCTTCTTTCATTAATCAGTTAGCAACTGTTTTGCTATATACATATACCTTTTAAGAGGAGGAAT |  |  | 1.04 |  |
| ACAGACGAAGGAGCCGCAAAGAAGTTATTAAGGGATGAATAAACCCTAAATATAAATATCTCTCACTTATTTAAA | 0.4 |  |  |  |
| ACAGACGAAGGAGCCGCAAAGAAGTTATTATGGGATGTATAATCCCTCAATATAAATATCTCTCACTTATTTAAA |  | 0.31 |  |  |
| ACAGACGAAGGAGCCGCAAAGAAGTTATAAAGGGATGAATAATCCCTCAATATAAATTTCTCTCACTTATTTAAA | 0.387 |  |  |  |
| ACAGACGAAGGAGCCGCAAAGTAGTTATTAAGTGATGAATAATCCCTCAATATAAATATCTCTCACTTATTTAAA | 0.116 | 0.106 |  |  |
| CGACATGTCCCGCTTCTTTCATTAATACGTTAGAAACTGTTTTGCTATATACATTTACCTTTTAAGAGGAGGAAT |  |  | 0.292 |  |
| ACAGACGAAGGAGCCGCAAAGACGTTATAAAGGGATGAATAATCCCTCAATATAAATATCTCTCACTTATTTAAA | 0.401 |  |  |  |
| CGACATGTCCCGCTTCTTTCATTAATCCGTTAGAAACTTTTTTGCTATATACATTTACCTTTTAAGAGGAGGAAT |  |  | 0.287 |  |
| CGACATGTCCCGCTTCTTTCATTAATCTGTTAGCAACTGTTTGGCTATATACATTTACCTTTTAAGAGGAGGAAT |  |  | 0.476 |  |

| Sequence | cleaved RNA product abundance [1] | cleaved RNA product abundance [2] | cleaved RNA product abundance [3] | other results |
| --- | --- | --- | --- | --- |
| ACAGACGAAGGAGCCGCAAAGAAGTTATTAGGAGATGAATAATCCCTCAATATAAATATCTCTCACTTATTTAAA | 0.24 |  |  |  |
| ACAGACGAAGGAGCCGCAAAGAAGTTATTAAGGGATGAATGATCCATCAATATAAATATCTCTCACTTATTTAAA | 0.259 |  |  |  |
| CGACATGTCCCGCTTCTTTCATTAATCTATTAGCAACTGTTTTGCTATTTACATTTACCTTTTAAGAGGAGGAAT |  |  | 0.311 |  |
| ACAGACGAAGGAGCCGCAAATAAGTTATAAAGGGATGAATAATCCCTCAATATAAATATCTCTCACTTATTTAAA | 0.421 | 0.337 |  |  |
| ACAGACGAAGGAGCCGCAAAGAAGTTATTAAGAGATGAATAATCCGTCAATATAAATATCTCTCACTTATTTAAA | 0.0917 | 0.0978 |  |  |
| ACAGACGAAGGAGCCGCAAAGAAGTTATTAAGGGATCAATAATCCCTCAAAATAAATATCTCTCACTTATTTAAA | 0.315 | 0.214 |  |  |
| CGACATGTCCCGCTTCTTTCATTACTCCGTTAGCAACTGTTTTGCTATATACATTTACTTTTTAAGAGGAGGAAT |  |  | 1.59 |  |
| CGACATGTCCCGCTTCTTTCATTAATCCGTTATCAACTGTTTTGCTATATACATTTACATTTTAAGAGGAGGAAT |  |  | 0.366 |  |
| ACAGACGAAGGAGCCGCAAAGAGGTTAATAAGGGATGAATAATCCCTCAATATAAATATCTCTCACTTATTTAAA | 0.363 |  |  |  |
| CGACATGTCCCGCTTCTTTCATTAATCCGTAAGCAACTGTTTTCCTATATACATTTACCTTTTAAGAGGAGGAAT |  |  | 0.354 |  |
| ACAGACGAAGGAGCCGCAAAGAAGTTATTAAGGAATGAATGATCCCTCAATATAAATATCTCTCACTTATTTAAA | 0.0629 |  |  |  |
| CGACATGTCCCGCTTCTTTCATTAATCCGTTAGCAACTGTTTTGCTATATACAATTGCCTTTTAAGAGGAGGAAT |  |  | 0.532 |  |
| ACAGACGAAGGAGCCGCAAAGAAGCTATTAAGGGATGAATATTCCCTCAATATAAATATCTCTCACTTATTTAAA | 0.56 | 0.469 |  |  |
| CGACATGTCCCGCTTCTTTCATTAATTCGTTAGCAACTGTTTTGTTATATACATTTACCTTTTAAGAGGAGGAAT |  |  | 0.602 |  |
| CGACATGTCCCGCTTCTTTCATTAATCCGTTATCAACTGTTTTGCTATAAACATTTACCTTTTAAGAGGAGGAAT |  |  | 0.182 |  |
| ACAGACGAAGGAGCCGCAGAGAAGTTATTAAGGGATGAATAATCCCTCAATATAAATATCTCTCACTTATTTAAA | 0.799 | 0.839 |  | cleaved RNA product abundance [4]: 0.208 |
| ACAGACGAAGGAGCCGCAAAGAATTTATTAAGGGATGAATAATCCCTTAATATAAATATCTCTCACTTATTTAAA | 0.448 |  |  |  |
| ACAGACGAAGGAGCCGCAAAGAAGTTATTAAGGCATGAATAATCCCTCTATATAAATATCTCTCACTTATTTAAA | 0.0965 | 0.0791 |  |  |
| ACAGACGAAGGAGCCGCAAAGAAGTTATTAAGGGATGAATCATCCCTCAAGATAAATATCTCTCACTTATTTAAA | 0.27 |  |  |  |
| CGACATGTCCCGCTTCTTTCATTAAACCGTGAACAACTGTGTTGCAATATACATGTACCTTTTAAGAGGAGGAAT |  |  | 0.222 |  |
